Laboratory results reported in PMC7051184 (2020).

Molecular target: 6His-S-Importin β(1-876), full-length WT human importin β (human, UniProt Q14974 1-876)
Assay: FRET; displacement of importin β-bound Rango

Chain of 6His-S-Importin β(1-876), full-length WT human importin β (Q14974 whole entry): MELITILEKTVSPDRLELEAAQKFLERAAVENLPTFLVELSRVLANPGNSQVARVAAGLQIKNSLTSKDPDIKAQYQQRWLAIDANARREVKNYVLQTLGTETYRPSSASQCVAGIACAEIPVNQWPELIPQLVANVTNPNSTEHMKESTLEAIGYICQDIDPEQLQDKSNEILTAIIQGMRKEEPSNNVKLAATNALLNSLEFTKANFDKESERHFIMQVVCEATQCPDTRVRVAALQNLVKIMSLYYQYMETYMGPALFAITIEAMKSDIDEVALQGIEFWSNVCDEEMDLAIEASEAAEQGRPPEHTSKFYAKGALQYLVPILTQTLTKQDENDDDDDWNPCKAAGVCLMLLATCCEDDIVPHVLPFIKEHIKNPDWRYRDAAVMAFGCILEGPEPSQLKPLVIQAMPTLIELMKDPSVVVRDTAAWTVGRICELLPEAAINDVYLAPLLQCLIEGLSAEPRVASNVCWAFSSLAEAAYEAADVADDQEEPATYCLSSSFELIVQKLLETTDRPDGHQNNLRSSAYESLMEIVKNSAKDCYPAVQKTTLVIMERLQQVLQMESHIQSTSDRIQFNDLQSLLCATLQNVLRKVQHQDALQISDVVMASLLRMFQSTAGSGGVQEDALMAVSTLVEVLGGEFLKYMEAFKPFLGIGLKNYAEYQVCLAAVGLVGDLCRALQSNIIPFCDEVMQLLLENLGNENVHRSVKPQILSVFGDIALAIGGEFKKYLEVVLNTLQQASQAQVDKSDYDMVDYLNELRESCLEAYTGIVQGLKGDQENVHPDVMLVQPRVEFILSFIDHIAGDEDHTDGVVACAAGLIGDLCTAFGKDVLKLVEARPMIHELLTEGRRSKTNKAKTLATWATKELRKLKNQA

Binder PRPRPRPRPRPRPRPRPRPRKC has a Kd of 8.2 nM.
